Key:
[1] = target: T1, human IL-18 (MBL Medical & Biological Laboratories, Co., Ltd.) (human, UniProt Q14116 37-193, biotinylated (Biotin-PEAC5-maleimide or Biotin-AC5 Sulfo-OSu) in the streptavidin plate ELISAs and the panning; not labelled in the receptor binding and KG-1 assays); test: ELISA, biotinylated human IL-18 on streptavidin plate, HRP detection antibody, O.D. 450nm/650nm
T1 construct: Bought protein; also called human interleukin-18; biotinylated human IL-18
T1 sequence (looked up): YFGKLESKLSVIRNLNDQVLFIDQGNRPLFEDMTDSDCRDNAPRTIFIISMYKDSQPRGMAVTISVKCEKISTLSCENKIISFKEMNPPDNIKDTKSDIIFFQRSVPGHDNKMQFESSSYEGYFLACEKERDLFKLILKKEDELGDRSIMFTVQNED
Protocol: The binding activity of the obtained scFv phages, scFv, and IgG prepared by a standard method (conventional method) was evaluated by ELISA. The biotinylated human IL-18 or the biotinylated mouse IL-18 was diluted to 1 μg/mL with PBS (Sigma-Aldrich Corp.), added at 100 μL/well to Streptavidin plates (Nunc), and incubated at room temperature for 2 hours to immobilize the IL-18. After the immobilization, the plates were washed with PBST, and each obtained scFv phage, scFv, or IgG was added at 100 μL/well to the plates and incubated at 37° C. After 1 hour, the plates were washed with PBST, and a detection antibody anti-M13/HRP (GE Healthcare Japan Corp.), anti-His tag/HRP (Bethyl Laboratories, Inc.), anti-V5 tag/HRP (Bethyl Laboratories, Inc.), anti-mouse IgG/HRP (Invitrogen Corp.), or anti-hFc/HRP (Cosmo Bio Co., Ltd., The binding site) was added at 100 μL/well to the plates and incubated at 37° C. After 1 hour, the plates were washed with PBST, and TMB (Sigma-Aldrich Corp.) was added at 100 μL/well to the plates to develop color. After 30 minutes, the reaction was terminated with 2 N sulfuric acid, and the color values (O.D. 450 nm/650 nm) were measured using a microplate reader (Molecular Devices, Inc.).

[2] = target: T1, human IL-18 (MBL Medical & Biological …); test: blocking ELISA: human IL-18 with IL-18Rα-hFc-His and the antibody added to plate-bound IL-18Rβ-hFc, anti-His tag/HRP; blocked partner: IL-18 receptor
Protocol: IL-18Rβ-hFc (R&D Systems, Inc.) was added at 100 μL/well at a concentration of 1 μg/mL to Covalink plates (Nunc) and incubated at room temperature for 1 hour and then incubated overnight at 4° C. On the next day, the plates were washed with PBS (phosphate buffered saline) and blocked with 1% BSA (bovine serum albumin)-PBS. Human IL-18 (MBL Medical & Biological Laboratories, Co., Ltd.) was prepared at a concentration of 0.5 μg/mL with 1% BSA-PBS, and IL-18Rα-hFc-His (R&D Systems, Inc.) was prepared at a concentration of 2 μg/mL with 1% BSA-PBS. Both of the solutions were mixed (50 μL each). The obtained anti-IL-18 antibody was further added to the IL-18/IL-18Rα-hFc-His mixed solution. This mixed solution was added to the IL-18Rβ-hFc-immobilized Covalink plates and incubated at 37° C. for 1 hour. After 1 hour, the plates were washed with PBST (phosphate buffered saline-Tween 20), and a detection antibody anti-His tag/HRP (Bethyl Laboratories, Inc.) was added at 100 μL/well to the plates and incubated at 37° C. After 1 hour, the plates were washed with PBST, and TMB (Sigma-Aldrich Corp.) was added at 100 μL/well to the plates to develop color. After 30 minutes, the reaction was terminated with 2 N sulfuric acid, and the color values (O.D. 450 nm/650 nm) were measured using a microplate reader (Molecular Devices, Inc.).

[3] = target: T1, human IL-18 (MBL Medical & Biological …); test: flow cytometry, blocking: human IL-18 100 ng/mL pre-mixed with the antibody, added to KG-1 cells, bound IL-18 detected with biotinylated 125-2H and streptavidin-PE; blocked partner: native IL-18 receptor [b]
Protocol: Human IL-18 (MBL Medical & Biological Laboratories, Co., Ltd.) was diluted to 100 ng/mL with 1% BSA-PBS-0.05% NaN₃-2% rabbit serum, mixed with the obtained anti-IL-18 antibody, and incubated at room temperature for 60 minutes. Then, the human IL-18/anti-IL-18 antibody mixed solution was added to KG-1 cells (1×10⁵ cells) cultured by a standard technique (e.g., a medium in which an RPMI1640 medium was supplemented with 10% bovine serum, 2 mM L-glutamine, 50 U/mL penicillin, and 50 μg/mL streptomycin), and reacted on ice. After 30 minutes, the supernatant was removed by centrifugation (1200 rpm, 3 min, 4° C.), and a biotinylated anti-IL-18 antibody 125-2H (MBL Medical & Biological Laboratories, Co., Ltd.) not inhibiting the binding between IL-18 and IL-18 receptor was added thereto and reacted on ice. After 30 minutes, the supernatant was removed by centrifugation (1200 rpm, 3 min, 4° C.), and streptavidin-PE (BD Becton, Dickinson and Company) was added thereto and reacted on ice for 30 minutes. After the reaction, the supernatant was removed by centrifugation (1200 rpm, 3 min, 4° C.), and the KG-1 cells were floated with 1% BSA-PBS-0.05% NaN₃-2% rabbit serum. The fluorescence intensity in the reacted KG-1 cells was measured using FACScan (BD Becton, Dickinson and Company).

[4] = target: T1, human IL-18 (MBL Medical & Biological …); test: cell-based or functional assay

B1: IgG molecule-type 4A6D (antibody, V domains shown)
VH: EVQLVESGGGLVQPGGSMRLSCTASGFTFDEYAMSWVRQAPGKGLEWVSGISTGGGGTYYADSVEGRFTISRDNSKNTLYLQMNSLRAEDTAVYYCAKPWLSGSRSGDFWGQGTLVTVSS
VL: QSALTQPASVSGSPGQSITISCTGTSSDVGGYNYVSWYQQHPGKAPKLLIYEVSHRPSGVSDRFSGSKSGNTASLTISGLQAEDEADYYCSSFTSSSSLYVFGTGTKLTVL
notes: detected with anti-hFc, so human constant regions; also called human anti-human IL-18 antibody 4A6D
[1]
  EC50 (read off the curve): ~0.02 µg/mL
[2]
  IC50 (read off the curve): ~0.3 µg/mL
[3]
  IC50 (read off the curve): ~0.2 µg/mL
[4]
  Neutralizing ability (IC50, nM): 0.007 nM
